{"source": "paper doi:10.1101/2022.08.02.502557", "target": "Trimeric LHCII complexes (the major antenna complex of photosystem II) (spinach)", "assay": "native gel or EMSA", "data": [{"substance": "Trimeric LHCII complexes (the major antenna complex of photosystem II)", "values": [{"measurement": "stoichiometry N", "value": 3}]}]}
